Source: patent US20040136998A1 (published 2004)

Molecular target: T1, prostate specific membrane antigen (PSMA) (human, UniProt Q04609 1-750)
T1 construct: whole, on cells; Target in all assays is PSMA on LNCaP (LNCap) cells or LNCaP membrane preparation; also called human PSMA
Experiment: ELISA on plates coated with LNCap membrane preparation; purified antibody; reference: J415 chimeric antibody

T1 sequence (Q04609 whole entry): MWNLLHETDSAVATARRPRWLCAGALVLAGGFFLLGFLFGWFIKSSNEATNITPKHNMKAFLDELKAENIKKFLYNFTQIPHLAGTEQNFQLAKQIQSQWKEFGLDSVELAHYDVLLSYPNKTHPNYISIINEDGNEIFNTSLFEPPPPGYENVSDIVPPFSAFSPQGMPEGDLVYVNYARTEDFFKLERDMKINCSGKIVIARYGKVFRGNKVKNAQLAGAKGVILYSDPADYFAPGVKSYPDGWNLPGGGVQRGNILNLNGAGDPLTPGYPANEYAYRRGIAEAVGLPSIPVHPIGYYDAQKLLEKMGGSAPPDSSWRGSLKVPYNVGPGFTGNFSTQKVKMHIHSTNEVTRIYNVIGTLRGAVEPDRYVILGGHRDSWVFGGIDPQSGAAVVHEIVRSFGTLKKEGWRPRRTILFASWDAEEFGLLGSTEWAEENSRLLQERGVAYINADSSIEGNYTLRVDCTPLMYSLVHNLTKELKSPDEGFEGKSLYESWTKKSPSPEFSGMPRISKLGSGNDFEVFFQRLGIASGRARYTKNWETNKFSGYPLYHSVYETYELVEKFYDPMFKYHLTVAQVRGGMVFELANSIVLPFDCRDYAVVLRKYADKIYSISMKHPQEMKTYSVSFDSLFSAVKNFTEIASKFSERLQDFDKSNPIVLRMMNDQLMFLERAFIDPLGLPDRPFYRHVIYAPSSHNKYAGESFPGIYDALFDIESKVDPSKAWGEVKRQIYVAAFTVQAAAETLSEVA

fold less binding than the chimeric antibody: 2 fold
B1: deimmunized J415 antibody, heavy chain version 2 with light chain version 5 (antibody, V domains shown)
VH: EVKLEESGGGLVQPGGSMKISCVASGFTFSNYWMNWVRQTPEKGLEWVALIRSQSNNFATHYAESVKGRVIISRDDSKSSVYLQMNSLRAEDTAVYYCTRRWNNFWGQGTTVTVSS
VL: NIVMTQFPKSMSASAGERMTLTCKASENVGTYVSWYQQKPTQSPKMLIYGASNRFTGVPDRFSGSGSGTDFILTISSVQAEDLVDYYCGQSYTFPYTFGGGTKLEMK
